Data from US20240254239A1 (LAEKNA THERAPEUTICS SHANGHAI, published 2024).

T1: human MICA ECD (human, UniProt Q29983 24-307)
T1 construct: extracellular domain
T1 sequence (looked up): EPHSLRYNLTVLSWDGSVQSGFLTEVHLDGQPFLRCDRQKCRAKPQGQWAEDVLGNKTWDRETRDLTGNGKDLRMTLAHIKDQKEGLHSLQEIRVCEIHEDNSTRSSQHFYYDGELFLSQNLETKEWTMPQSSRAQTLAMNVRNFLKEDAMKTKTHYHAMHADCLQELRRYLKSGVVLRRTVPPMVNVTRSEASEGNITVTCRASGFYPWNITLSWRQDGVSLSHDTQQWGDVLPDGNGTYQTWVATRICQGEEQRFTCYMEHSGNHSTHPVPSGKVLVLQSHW

B1: α-PDGFRb 1 S239D/1332E (antibody, human IgG1, kappa, V domains shown)
VH: QVQLQESGPGLVKPSETLSLTCTVSGFSLTNYAINWVRQPPGKGLEWLGIIWTGGGTSYNSALKSRLTISKDTSKNQVSLKLSSVTAADTAVYYCARTGTRGYFFDYWGQGTLVTVSS
VL: DIQMTQSPSSLSASVGDRVTITCHASQNINVWLSWYQQKPGKAPKLLIYKASNLHTGVPSRFSGSGSGTGFTLTISSLQPEDIATYYCQQGQSFPFTFGGGTKVEIKR
notes: also called α-PDGFRb 1 S239D/I332E; exemplary anti-PDGFRb antibody (α-PDGFRb 1)
B2: α-GPC3 1 mIgG2a S239D/1332E (antibody, V domains shown)
VH: QVQLQQSGAELVRPGASVKLSCKASGYTFTDYEMHWVKQTPVHGLKWIGALDPKTGDTAYSQKFKGKATLTADKSSSTAYMELRSLTSEDSAVYYCTRFYSYTYWGQGTLVTVSA
VL: DVVMTQTPLSLPVSLGDQASISCRSSQSLVHSNGNTYLHWYLQKPGQSPKLLIYKVSNRFSGVPDRFSGSGSGTDFTLKISRVEAEDLGVYFCSQNTHVPPTFGSGTKLEIKR
notes: mIgG2a with S239D/I332E; also called α-GPC3 1 mIgG2a S239D/I332E; exemplary anti-GPC3 antibody (α-GPC3 1)
B3: α-PDGFRb 1-NKG2D KIH S239D/1332E (bispecific antibody, human IgG1, kappa)
heavy: QVQLQESGPGLVKPSETLSLTCTVSGFSLTNYAINWVRQPPGKGLEWLGIIWTGGGTSYNSALKSRLTISKDTSKNQVSLKLSSVTAADTAVYYCARTGTRGYFFDYWGQGTLVTVSSASTKGPSVFPLAPSSKSTSGGTAALGCLVKDYFPEPVTVSWNSGALTSGVHTFPAVLQSSGLYSLSSVVTVPSSSLGTQTYICNVNHKPSNTKVDKKVEPKSCDKTHTCPPCPAPELLGGPDVFLFPPKPKDTLMISRTPEVTCVVVDVSHEDPEVKFNWYVDGVEVHNAKTKPREEQYNSTYRVVSVLTVLHQDWLNGKEYKCKVSNKALPAPEEKTISKAKGQPREPQVCTLPPSREEMTKNQVSLSCAVKGFYPSDIAVEWESNGQPENNYKTTPPVLDSDGSFFLVSKLTVDKSRWQQGNVFSCSVMHEALHNHYTQKSLSLSPGK
chain: FLNSLFNQEVQIPLTESYCGPCPKNWICYKNNCYQFFDESKNWYESQASCMSQNASLLKVYSKEDQDLLKLVKSYHWMGLVHIPTNGSWQWEDGSILSPNLLTIIEMQKGDCALYASSFKGYIENCSTPNTYICMQRTVGGSGGGSGFLNSLFNQEVQIPLTESYCGPCPKNWICYKNNCYQFFDESKNWYESQASCMSQNASLLKVYSKEDQDLLKLVKSYHWMGLVHIPTNGSWQWEDGSILSPNLLTIIEMQKGDCALYASSFKGYIENCSTPNTYICMQRTVGGGGSGGGGSGGGGSGGGGSPKSSDKTHTCPPCPAPELLGGPDVFLFPPKPKDTLMISRTPEVTCVVVDVSHEDPEVKFNWYVDGVEVHNAKTKPREEQYNSTYRVVSVLTVLHQDWLNGKEYKCKVSNKALPAPEEKTISKAKGQPREPQVYTLPPCRDELTKNQVSLWCLVKGFYPSDIAVEWESNGQPENNYKTTPPVLDSDGSFFLYSKLTVDKSRWQQGNVFSCSVMHEALHNHYTQKSLSLSPGK
light: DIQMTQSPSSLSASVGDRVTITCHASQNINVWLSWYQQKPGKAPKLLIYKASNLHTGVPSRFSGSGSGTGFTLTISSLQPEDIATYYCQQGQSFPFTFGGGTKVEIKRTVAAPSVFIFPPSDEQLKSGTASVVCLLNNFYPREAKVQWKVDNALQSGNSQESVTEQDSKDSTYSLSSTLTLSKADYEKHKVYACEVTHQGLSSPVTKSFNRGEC
notes: The Fc carries S239D/I332E; also called α-PDGFRb 1-NKG2D KIH S239D/I332E; knob-into-hole bispecific antibody

Tests used:
Human PDGFRb ECD [1] = biological target: T2, Human PDGFRb ECD (human, UniProt P09619 33-532); test: direct ELISA on coated recombinant ECD (30 ng/well), HRP-conjugated secondary antibody, luminescence
T2 construct: extracellular domain; also called recombinant extracellular domain of PDGFRb
T2 sequence (P09619 33-532): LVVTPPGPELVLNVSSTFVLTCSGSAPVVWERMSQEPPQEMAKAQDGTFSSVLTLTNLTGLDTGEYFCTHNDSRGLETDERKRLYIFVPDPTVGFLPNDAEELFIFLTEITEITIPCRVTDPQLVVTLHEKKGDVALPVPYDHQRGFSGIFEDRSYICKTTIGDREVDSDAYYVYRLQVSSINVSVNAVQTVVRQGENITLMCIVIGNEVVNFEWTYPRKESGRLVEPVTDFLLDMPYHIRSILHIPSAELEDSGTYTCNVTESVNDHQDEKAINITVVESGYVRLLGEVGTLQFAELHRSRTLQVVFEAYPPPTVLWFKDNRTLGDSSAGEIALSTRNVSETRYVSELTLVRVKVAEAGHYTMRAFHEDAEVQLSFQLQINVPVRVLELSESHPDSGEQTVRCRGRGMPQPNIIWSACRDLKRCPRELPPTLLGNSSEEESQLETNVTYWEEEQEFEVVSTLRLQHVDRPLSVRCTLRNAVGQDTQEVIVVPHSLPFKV
Experimental: (§1) Briefly, recombinant extracellular domain of PDGFRb, FAPα, ULBP1, uPAR, IGF1R, SIRPA, PD-L1, ANTXR1, CD248, or GPC3 (30 ng/well) was coated on white optiplate™-384 well HB plate. After overnight coating, standard direct ELISA assay was performed. Luminescence signal was detected after using secondary antibody with HRP conjugated. Binding activity of each antibody was determined based on dose dependent binding curve.

Human PDGFRb ECD [2] = biological target: T2, Human PDGFRb ECD; test: ELISA on human PDGFRb ECD, luminescence
human GPC3 ECD = biological target: T3, human GPC3 ECD (human, UniProt P51654 25-559, limits assumed); test: direct ELISA on coated recombinant ECD (30 ng/well), HRP-conjugated secondary antibody, luminescence
T3 construct: extracellular domain; also called recombinant extracellular domain of GPC3
T3 sequence (P51654 25-559 limits assumed): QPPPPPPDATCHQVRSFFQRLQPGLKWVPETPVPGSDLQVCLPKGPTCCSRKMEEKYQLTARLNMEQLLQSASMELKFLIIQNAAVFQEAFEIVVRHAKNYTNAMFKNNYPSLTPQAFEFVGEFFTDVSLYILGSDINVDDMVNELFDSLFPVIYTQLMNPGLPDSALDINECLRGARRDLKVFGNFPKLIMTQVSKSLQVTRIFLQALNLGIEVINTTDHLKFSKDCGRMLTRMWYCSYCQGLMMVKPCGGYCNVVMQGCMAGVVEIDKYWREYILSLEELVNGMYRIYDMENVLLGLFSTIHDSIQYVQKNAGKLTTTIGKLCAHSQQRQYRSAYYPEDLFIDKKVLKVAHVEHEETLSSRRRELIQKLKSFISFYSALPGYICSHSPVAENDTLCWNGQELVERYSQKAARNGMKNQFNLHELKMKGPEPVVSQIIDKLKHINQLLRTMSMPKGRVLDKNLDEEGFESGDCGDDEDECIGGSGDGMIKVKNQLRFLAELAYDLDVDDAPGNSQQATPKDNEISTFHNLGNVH
Experimental: as §1

human MICA ECD = biological target: T1, human MICA ECD; test: ELISA on human MICA ECD, luminescence

Row | Binder | EC50 (read off the curve) (Human PDGFRb ECD [1]) [µg/mL] | EC50 (read off the curve) (Human PDGFRb ECD [2]) [µg/mL] | EC50 (read off the curve) (human GPC3 ECD) [µg/mL] | binding result (human MICA ECD)
1 | B1 | ~0.03 | ~0.02 |  | 
2 | B2 |  |  | ~0.02 | 
3 | B3 |  | ~0.02 |  | binds
